In patent US8273705B2, “Conversion of apoptotic proteins” (The Burnham Institute, priority 2002, dated 2012):
Entries after “also recorded” stand apart in the source; their conditions may differ. Values belong to the molecule of their own block, whether it stands above or below them.

Assays:
Bcl-2 = biological target: T1, Bcl-2 (Homo sapiens, UniProt P10415); test: Co-IP assay of TR3 mutants with Bcl-2 in HEK293T cells; format: binding; conditions: GFP fusions co-transfected with Bcl-2 in HEK293T cells
T1 construct: expressed in transfected cells; host or cells: HEK293T
Procedure: TR3/Bcl-2 interaction assays—Reporter gene assays using NurRE-tk-CAT in CV-1 cells, and GST pull-down assay were described previously (Li, et al. 2000 Science 289, 1159-1164). For the mammalian two-hybrid assays, CV-1 cells were co-transfected with pcDNA-Gal4TAD-TR3 or pcDNA-Gal4TAD-TR3/ΔDBD and pcDNA-Gal4DBD-Bcl-2/ΔTM along with a luciferase reporter gene driven by four copies of the Gal4-binding site. The cells were harvested and reporter gene activity was measured. For Co-IP assays, HEK293T cells were transiently transfected with various expression plasmids using a modified calcium phosphate precipitation method (Wu et al, 1997) in the presence of caspase inhibitors (zVAD-fmk) to prevent degradation of TR3 protein due to apoptosis. Cells were suspended in lysis buffer (50 mM Tris-HCl, PH7.4; 150 mM NaCl; 20 mM EDTA; 1% NP-40; 1 mM PMSF; 50 μg/ml Leupeptin; […]; 0.1 mM Na3VO4; and 1 mM DTT). Cells extracts were cleared by incubation with the Protein A/G plus Agarose beads (Santa Cruz) and then incubated with appropriate antibody and 30 μl of Protein A or G plus Agarose beads overnight at 4° C. Beads were then washed and boiled in Laemmli gel-loading solution before performing SDS-PAGE/immunoblotting using the following polyclonal or monoclonal antibodies: monoclonal mouse anti-GFP (Medical and Biological Laboratories), monoclonal mouse anti-HA (Roche Molecular Biochemicals), monoclonal mouse anti-FLAG (Sigma), monoclonal mouse anti-Myc (Santa Cruz), polyclonal rabbit anti-TR3 (Active Motif), or monoclonal mouse anti-Bcl-2 (Santa Cruz). Immunoreactive products were detected by chemiluminescence with an enhanced chemiluminescence system (ECL) (Amersham).
TR3/ΔDBD, which can constitutively reside on mitochondria, was also analyzed by co-immunoprecipitation (Co-IP) assay for its interaction with Bcl-2. GFP-TR3/ΔDBD was transfected into human embryonic kidney cell line 293T alone or together with a Bcl-2 expression vector. The expressed GFP-TR3/ΔDBD mutant protein as then precipitated by using either anti-Bcl-2 antibody or control IgG and detected by western blotting using anti-GFP antibody. The same membranes were also blotted with anti-Bcl-2 antibody to determine precipitation specificity and efficiency. Input represents 10% of total cell extract used in the precipitation assays.
Several TR3 mutants were analyzed to determine the domain of TR3 which interacts with Bcl-2. The TR3 mutants are schematically represented in FIG. 1. A Co-IP assay was performed, as described above. […] Cell extracts were prepared and incubated with anti-Bcl-2 antibody or control IgG for Co-IP assays. Lysates were immunoprecipitated by using either polyclonal rabbit anti-Bcl-2 antibody or control IgG. Cell lysates and immunoprecipitates were examined by immunoblotting using anti-GFP antibody. The same membranes were also blotted with anti-Bcl-2 antibody (Santa Cruz) to determine IP specificity and efficiency. […] This Co-IP was specific because Bcl-2 co-transfection was necessary. […] Thus, the DC1 region in the TR3 LBD is involved in the Bcl-2 interaction.
To further determine the interaction of DC1 with Bcl-2, a region of hydrophobic amino acids ([…]—SEQ ID NO: 1) was deleted from TR3/ΔDBD, and the resulting mutant (TR3/ΔDBD/Δ471-488) was analyzed for its interaction with Bcl-2. TR3/ΔDBD/[…], with eighteen amino acids from 471 to 488 in the DC1 region deleted from TR3/ΔDBD, TR3/ΔDBD/I483A (with Ile483 replaced with Ala) and TR3/ΔDBD/L487A (with Leu487 replaced with Ala) were analyzed for their interaction with Bcl-2 by in vivo Co-IP assay as described above.

293T cells = test: Confocal microscopy of mitochondrial targeting in 293T cells; format: cell-based, human
Procedure: Subcellular localization assays—Cells were seeded onto cover-slips in 6-well plates overnight, then transiently transfected with GFP-fusion expression plasmids. After 16 hours, cells were washed with PBS and fixed in 4% paraformaldehyde. For mitochondrial staining, cells were then incubated with anti-Hsp60 goat IgG (Santa Cruz, USA), followed by anti-goat IgG conjugated with Cy3 (Sigma). For cyt c staining, cells were incubated with monoclonal anti-cyt c IgG (PharMingen), followed by anti-mouse IgG conjugated with Cy5 (Amersham). Fluorescent images were collected and analyzed using a MRC-1024 MP laser-scanning confocal microscope (Bio-Rad). Subcellular fractionation assays were performed as described (Li, et al. 2000 Science 289:1159-1164). Briefly, cells (1×10^7 cells) suspended in 0.5 ml hypotonic buffer (5 mM Tris-HCl, pH 7.4, 5 mM KCl, 1.5 mM MgCl2, 0.1 mM EGTA, pH 8.0, and 1 mM DTT) were homogenized and cell extracts were centrifuged at 500×g for 5 min. The resulting supernatant was centrifuged at 10,000×g for 30 min at 4° C. to obtain the HM fraction. HM fraction was resuspended in 100 μl lysis buffer (10 mM Tris, pH 7.4, 150 mM NaCl, 1% Triton X-100, 5 mM EDTA, pH 8.0) for immunoblotting analysis.
A. confocal microscopy—First an experiment was performed to determine whether the deletion mutant TR3/ΔDBD targets mitochondria via its interaction with Bcl-2. In confocal microscopy analysis, GFP-TR3/ΔDBD and Bcl-2 were transfected into 293T cells alone or together. […] Bcl-2, TR3/ΔDBD and mitochondria (Hsp60) were visualized using confocal microscopy and the three images were overlaid.

T1 sequence (P10415 whole entry, the tested form may be a part): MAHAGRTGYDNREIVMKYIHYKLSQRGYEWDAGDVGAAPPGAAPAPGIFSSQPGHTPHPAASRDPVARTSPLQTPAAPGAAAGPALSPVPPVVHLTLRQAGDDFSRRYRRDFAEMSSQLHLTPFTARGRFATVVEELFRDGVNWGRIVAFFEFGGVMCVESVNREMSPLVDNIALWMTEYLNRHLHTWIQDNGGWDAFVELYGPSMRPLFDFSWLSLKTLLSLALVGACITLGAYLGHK

B1: TR3/ΔDBD/Δ471-488: TR3/ΔDBD with eighteen amino acids from 471 to 488 in the DC1 region deleted (protein)
chain: MPCIQAQYGTPAPSPGPRDHLASDPLTPEFIKPTMDLASPEAAPAAPTALPSFSTFMDGYTGEFDTFLYQLPGTVQPCSSASSSASSTSSSSATSPASASFKFEDFQVYGCYPGPLSGPVDEALSSSGSDYYGSPCSAPSPSTPSFQPPQLSPWDGSFGHFSPSQTYLVLFSRSLHSLLVDVPAFACLSALVLITDRHGLQEPRRVEELQNRIASCLKEHVAAVAGEPQPASCLSRLLGKLPELRTLCTQGLQRIFYLKLEDLVPPPPIIDKIFMDTLPF
modifications: left off: large carriers; small tags and cut ends
notes: TR3/ΔDBD with eighteen amino acids from 471 to 488 in the DC1 region deleted
interaction with Bcl-2 (Co-IP) (Bcl-2): significantly impaired the interaction; also recorded: very weak interaction | colocalization with mitochondria (293T cells): failed to colocalize with mitochondria

interaction with Bcl-2 (Co-IP) (Bcl-2): co-precipitated with Bcl-2
B2: TR3/ΔDBD: TR3 mutant with the DNA binding domain removed; used as GFP fusion (protein)
chain: MPCIQAQYGTPAPSPGPRDHLASDPLTPEFIKPTMDLASPEAAPAAPTALPSFSTFMDGYTGEFDTFLYQLPGTVQPCSSASSSASSTSSSSATSPASASFKFEDFQVYGCYPGPLSGPVDEALSSSGSDYYGSPCSAPSPSTPSFQPPQLSPWDGSFGHFSPSQTYLVLHRLQCARGFGDWIDSILAFSRSLHSLLVDVPAFACLSALVLITDRHGLQEPRRVEELQNRIASCLKEHVAAVAGEPQPASCLSRLLGKLPELRTLCTQGLQRIFYLKLEDLVPPPPIIDKIFMDTLPF
modifications: left off: large carriers; small tags and cut ends
notes: used as GFP fusion
subcellular distribution (293T cells; coexpressed with Bcl-2): distribution pattern overlaid extensively with that of Hsp60 | subcellular distribution (293T cells; expressed alone): diffuse distribution pattern
